According to the nanobody polyreactivity screen of Harvey et al. (2022):

Assay: yeast display, Sf9 membrane polyspecificity reagent, FACS + sequencing; frameworks hold sequencing errors
Method in brief: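 In a synthetic yeast display library (Saccharomyces cerevisiae BJ5465), nanobody expression was induced with galactose for 36–48 hours. FACS gates were set low and high (top ~1%) using anti-HA fluorescence for expression and streptavidin fluorescence for binding of the Sf9 membrane reagent. Each polyreactivity label is drawn from the gate of origin.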

QVQLVESGGGLVQAGGSLRLSCAASGFTFALNAMGWYRQAPGKERELVAAISSRGGSTYYADSVKGRFTISRDNAKNTVYLQMNSLKPEDTAGYYCAKDYKADSRFSPYGYWGQGTQVTVSS
polyreactivity (PSR sort gate): high polyreactivity

QVQLVESGGGLVQAGGSLRLSCAASGSIFYRYAMGWYRQAPGKERELVAAINWSGGSTYYADSVKGGFTISRDNAKNTVYLQMNTLKPEDTAVYYCAARLYWRRYDYWGQGTQVTVSS
polyreactivity (PSR sort gate): high polyreactivity

QVQLVESGGGLVQAGGSLRLSCAASGGIFYTYALGWYRQAPGKERELVAGINWSGSSTYYADSVKGRFTISRDNAKNTVYLQMNSLKPEDTAVYYCAARSYSYSTGDYWGQGTQVTVSS
polyreactivity (PSR sort gate): low polyreactivity

QVQLVESGGGLVQAGGSLRLSCAASGIIFAYNAMGWYRQAPGNERELVAAITSGTSTHYADSVKGRFTISRDNAKNTVYLQMNSLKPEDTAVYYCAKVYSYFNPRTYKPSFAGSDYWGQGTQVTVSS
polyreactivity (PSR sort gate): low polyreactivity

QVQLQESGGGLVQAGGSLRPRCAAGGTIFVSVNMGWYRHAPGEELEFVASITQGATTNYADSLIGRFTISRDNAKNTVYLQMNCQNQEDTAVYYCAVHESGGITFTYWGQGTQVTVSS
polyreactivity (PSR sort gate): high polyreactivity

QVQLVESGGGLVQAGGSLRLSCAASGSTFGTYAMGWNRQATWKERELVAAITYSTGNTYYADSVKGRFTISRDNAKNNVYLQMNSLKPEDTAVYYCALEFGYYYFWMDYWGQGTQVTVSS
polyreactivity (PSR sort gate): high polyreactivity

QVQLVESGGGLVQAGGSLRLSCAASGSTFYVNAMGWYRQAPGKERYADSVKGRFTISRDNAKNTVYLQMNSLKPEDTAVYYCAAKVPEPPSLDESDYWGQGTQVTVSS
polyreactivity (PSR sort gate): low polyreactivity

QVQHVESGGGLVQAGGSLRLSCAASGRIIRRNARGSYRLAPGKERELVAAISWSGGSTYYADSVKGRFTISRDNAKNSVDLQMNSLKQEDTAVYYCAAVPCYTGDYWGQGTQVTVSS
polyreactivity (PSR sort gate): low polyreactivity

QVQLVESGGGLVQAGGSLRLSCAASGYNFGWYAMGWYRQAPGKERELVAGISSAGSTNYADSVKGRFTISRDNAKNTVYLQMNSLKPEDTSVDYCARDKWGLRYAPTVDYWGQGTQVTVSS
polyreactivity (PSR sort gate): high polyreactivity

QVQLVESGGGLVQAGGSLRLSCAASGFTFGINAMGWYRQAPGKERELVAAINQSGDRTYYADSVKGRFTISRDNAKNTVYLQMNSLKPEDTAVYYCAALSTYRTWYGYWGQGTQVTVSS
polyreactivity (PSR sort gate): high polyreactivity

QFQLVESGGGLVQAGGSLRLSCAASGSIFELNAKGLYRTAPGKERELVAAITSSGSSTYYADSVKGRFTISRDNAKNTVYLQMNRLKPEDTAVYYCFRPHDYWGQGTQVTESS
polyreactivity (PSR sort gate): low polyreactivity

QVQLVESGGGLVQAGGSLRLSCAASGSTYAGNAIGWSRQAPRKERELVAAIDSSTGSTYYADSVKGRFTISRDNAKNTVYLQMNSLNPEDTAVYYCNKTSFLVKLDYWGQGTQVTVSS
polyreactivity (PSR sort gate): low polyreactivity

QVQLVESGGGLVQEGGSLRLSCAASGSSFCSYAMGRYRQAPGKERELVAAISSSGDSTYADSVKGRFTMSRDNAKNTVYLQMNSLKPEDTAVYYCAVGGAGSDDYWGQGTQVTVSS
polyreactivity (PSR sort gate): low polyreactivity

QVQLVESGGGLVQAGGILRLSCAASGRTFYYYAMGWYRHERGKERELVAAISISGGTNYADSVKGRFTISRDNAKNTVYLQMNSLKPEDTAVYYCAAYLRHESPSIWDRYDYWGQGTQVTVSS
polyreactivity (PSR sort gate): low polyreactivity

QVQLVESGGGLVQAGGSIRLSCAASGRIFHPYAMGWYRQAPGKERELVATISWSGGSTTYADSVKGRFTISRDNAKNTVYLQMNSLKPEDTAVYYCNADYWWSYVRFDYWGQGTQVTVSS
polyreactivity (PSR sort gate): low polyreactivity

QVQLVESGGGLVQAGGSLRLSCAASGSLFERYAMGWNRQAPGKEREFVATITSGGGRTYYADSVKGRFTISRDNAKNTVYLQMNSLKPEDTAVYYCNAVYRARSYDYWGQGTQVTVSS
polyreactivity (PSR sort gate): high polyreactivity

QVQLVESGGGLVQAGGSLRLICAASGISFDGNPMGWYRQAPGKERELVASITSDSSTNYADSVKGRFTISRDNAKNTVYLQMKSLKPEDTAVYYCAADHWIAPRRDYWGQGTQVTVSS
polyreactivity (PSR sort gate): low polyreactivity

QVQLVESGGGLVQAGGSLRLSCAASGFTFYSYAMGWYRQAPGKERELVAAISRSGGRTYYADSVKGRFTISRDNAKNTVYLQMNSLKPEDTAVYYCAAEAYGPYSYSYSPYGYYYWGQGTQVTVSS
polyreactivity (PSR sort gate): high polyreactivity

QGQLLESGGGLVQAGGSLRLSCAASRFNFRFYAIGWYRQAPGKERELVASITQGGSTYYADSVKGSFTISRDNAKNTVYLQMNSLKPVDTAVYSCAARYLGGRRSGDYSRYYWGQGTQVSVSS
polyreactivity (PSR sort gate): high polyreactivity

PVQLVESGGGLVQAGGSLRLSCDAYGSIFAYNAMGWYRQAPGKERELVAAISVSDGITYYADSVKGRFTISRDNAKNTVYLQMISLKPEDTAVYYCPARTRGPSRAYDYWGQGTQGTVSS
polyreactivity (PSR sort gate): low polyreactivity

QVQLVESGGGLVQAGGSLRLSCAASGRTSIGYARGWYRQAPGKERELVAVISIGGTTYYADSVKGRFTISRDNAKNTVYLQMNSLKPEDTAVYYCAADSFPAYLGFVGFDYWGQGTQVTVSS
polyreactivity (PSR sort gate): low polyreactivity

QVQLVESGGGLVQAGGSLRLSCAASGIIFGLNDMGWYRQAPGKERELVADITYSGGSTYYADSVKGRFTISRDNAKNTVYLQMNSLKPEDTAVYYCAADEVSFWGYIYDYWGQGTQVTVSS
polyreactivity (PSR sort gate): high polyreactivity
